Here are results for 10 molecules from patent US20170260272A1 (Novartis, published 2017).

Positions count from the first letter of the chain named.

B1: MOR021451 (antibody, V domains shown)
VH: QVQLVQSGAEVKKPGSSVKVSCKASGGTFSSYAISWVRQAPGQGLEWMGRIVPGFVYTSYAQKFQGRVTITADESTSTAYMELSSLRSEDTAVYYCARDPLYRSDYYYHWFDFWGQGTLVTVSS
VL: DIALTQPASVSGSPGQSITISCTGTSSDVGNFNYVSWYQQHPGKAPKLMIYGVNNRPSGVSNRFSGSKSGNTASLTISGLQAEDEADYYCAAYGWALDEVVFGGGTKLTVLG
notes: IgG (human IgG1f LALA); parent MOR20152 with the printed HCDR2 stretch exchanged
B2: MOR021455 (antibody, V domains shown)
VH: QVQLVQSGAEVKKPGSSVKVSCKASGGTFSSYAISWVRQAPGQGLEWMGRIIPQWAGTPEYAQKFQGRVTITADESTSTAYMELSSLRSEDTAVYYCARDPLYRSDYYYHWFDFWGQGTLVTVSS
VL: B1 VL
notes: as for B1
B3: MOR021441 (antibody, V domains shown)
VH: QVQLVQSGAEVKKPGSSVKVSCKASGGTFSDYAISWVRQAPGQGLEWMGGIVPIVGTANYAQKFQGRVTITADESTSTAYMELSSLRSEDTAVYYCARDSSTSYYYYFDYWGQGTLVTVSS
VL: DIQMTQSPSSLSASVGDRVTITCRASQDINSWLAWYQQKPGKAPKLLIYQASNLQSGVPSRFSGSGSGTDFTLTISSLQPEDFATYYCQQMKTFPITFGQGTKVEIKR
notes: IgG (human IgG1f LALA); parent MOR20159 with the printed LCDR3 stretch exchanged
B4: MOR021442 (antibody, V domains shown)
VH: B3 VH
VL: B3 VL with K92H, T93R, F94L, I96V
notes: as for B3
B5: MOR021449 (antibody, V domains shown)
VH: QVQLVQSGAEVKKPGSSVKVSCKASGGTFSDYAISWVRQAPGQGLEWMGGIQPGFAGAWYAQKFQGRVTITADESTSTAYMELSSLRSEDTAVYYCAREPSPLYGPYSDYVMDPWGQGTLVTVSS
VL: DIALTQPASVSGSPGQSITISCTGTSSDVGYFNFVSWYQQHPGKAPKLMIYDVSNRPSGVSNRFSGSKSGNTASLTISGLQAEDEADYYCASYGWDSSWVFGGGTKLTVLG
notes: IgG (human IgG1f LALA); parent MOR20052 with the printed HCDR2 stretch exchanged
B6: MOR021448 (antibody, V domains shown)
VH: QVQLVQSGAEVKKPGSSVKVSCKASGGTFSDYAISWVRQAPGQGLEWMGRVIRPYYGWTEYAQKFQGRVTITADESTSTAYMELSSLRSEDTAVYYCAREPSPLYGPYSDYVMDPWGQGTLVTVSS
VL: B5 VL
notes: as for B5
B7: MOR021553 (antibody, V domains shown)
VH: QVQLLESGGGLVQSGGSLRLSCAASGFTFRSGAAMHWVRQAPGKGLEWVSSIEYFGSATLYADSVKGRFTISRDNSKNTLYLQMNSLRAEDTAVYYCARNFKYAMDYWGQGTLVTVSS
VL: DIALTQPASVSGSPGQSITISCTGTSSDVGSINYVSWYQQHPGKAPKMIYAVSYRPSGVSNRFSGSKSGNTASLTISGLQAEDEADYYCQVWDWRSDSRVFGGGTKLTVLG
notes: IgG (human IgG1f LALA); parent MOR20148 with the printed HCDR2 stretch exchanged
B8: MOR021443 (antibody, V domains shown)
VH: QVQLVQSGAEVKKPGESLKISCKGSGYSFTNYWIAWVRQMPGKGLEWMGRIFPGKSETSYSPSFQGQVTISADKSISTAYLQWSSLKASDTAMYYCARGKRGATHPTQYEGWEVYGFDPWGQGTLVTVSS
VL: DIELTQPPSVSVSPGQTASITCSGDALGGKYASWYQQKPGQAPVLVIYDDNKRPSGIPERFSGSNSGNTATLTISGTQAEDEADYYCQSWAFYSGVFGGGTKLTVLG
notes: IgG (human IgG1f LALA); parent MOR20133 with the printed HCDR2 stretch exchanged
B9: MOR021445 (antibody, V domains shown)
VH: B8 VH with R50A, F52R, G54E, K55W, S59K
VL: B8 VL
notes: as for B8
B10: MOR021444 (antibody, V domains shown)
VH: B8 VH with F52E, G54L, K55S, E57T, S59E
VL: B8 VL
notes: as for B8

In this assay the target is APP-Avi-soluble human LOX-1(61-273) (human, UniProt P78380 61-273). As to the kind of experiment: SET, IgG vs soluble human LOX-1. How it is done:
Affinity determination for anti-LOX-1 IgGs using Solution Equilibrium Titration (SET) was basically performed as described in the literature (Friguet et al., 1985 J Immunol Methods 77: 305-319). The assays were performed in a 96-well polypropylene plate (Thermo Scientific, Catalog no. AB-1127) using a constant concentration of LOX-1 antibody mixed with different concentrations of non-biotinylated human or cynomolgus monkey LOX-1 protein and incubated at 22° C. for 14 hours with constant shaking (300 rpm).
On a pre-blocked MSD plate (Meso Scale Discovery, catalog no. L21SA) biotinylated human or cynomolgus monkey soluble LOX-1 protein was immobilized and washed afterwards. The equilibrium binding reactions were then applied to the MSD plate with immobilized LOX-1 and incubated for 30 min. The unbound material was removed by washing the plate, and the captured antibody was detected by adding Sulfo-tagged goat anti-human IgG (Meso Scale Discovery, catalog no. R3AJ-1). After incubation and washing 1×MSD read buffer T(Meso Scale Discovery, catalog no. R92TC-2) was added and the plate was developed using a Sector Imager 6000 (Meso Scale Discovery). The data were transferred to Excel for analysis and plotted using GraphPad Prism v5. The KD values were determined by fitting the data to the following equation: […]
With B1, the Kd came out at 0.1 pM.

In turn, B2 yielded a Kd of 0.3 pM.

B3 had a Kd of 3 pM.

On to B4, for which the Kd was found to be 4 pM.

Take B5: the Kd came to 0.3 pM.

In turn, B6 registered a Kd of 0.3 pM.

For B7, the Kd turned out to be 6 pM.

As for B8, the Kd is 75 pM.

The molecule B9 had a Kd of 30 pM.

Regarding B10, the Kd stood at 35 pM.
